Measurements: the supplement of paper PMC10567573

B1: SCNN1D (parent)
chain: RRPSPVLRHLELLDEFARENIDSL

Variants of: B1
Assay: protein stability index of a GFP-peptide fusion (GPS, HEK-293T) (PSI 1-6); higher = more stable
Conditions: c terminus: a fixed tail appended
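Further: lentivirally expressed fusions sorted by FACS into six bins by GFP to DsRed ratio, PSI derived from sequencing read proportions per bin multiplied by bin number.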

Protein stability index: each site, then its substitutions
L12: K 4.1; M 3.98; N 3.9; P 4.4; Q 4.51; R 3.63; S 4.4; T 4.35; V 4.05; W 3.1; Y 3.56
L13: A 3.98; C 3.57; D 4.57; E 4.48; F 3.14; G 4.23; H 4.31; I 3.73; K 3.9; M 3.59; N 4.16; P 4.21; Q 3.78; R 3.6; S 4.26; T 4.13; V 3.6; W 3.19; Y 3.19
D14: A 1.67; C 1.59; E 2.56; F 1.42; G 2.83; H 2.5; I 1.78; K 1.8; L 2.86; M 2.6; N 2.74; P 2.92; Q 2.94; R 2.27; S 2.16; T 2.21; V 1.37; W 1.44; Y 2
E15: A 2.97; C 2.94; D 3.21; F 2.03; G 3.34; H 2.92; I 2.72; K 2.82; L 1.76; M 2.18; N 3.41; P 3.02; Q 2.95; R 2.72; S 3.27; T 2.92; V 2.29; W 2.05; Y 1.83
F16: A 2.61; C 3.61; D 4.61; E 3.63; G 4.12; H 3.77; I 2.84; K 3.91; L 3.36; M 2.25; N 3.88; P 3.72; Q 3.14; R 4.28; S 4.57; T 4.21; V 3.95; W 2.64; Y 3.09
A17: C 3.38; D 4.43; E 4.18; F 2.24; G 3.72; H 3.74; I 2.46; K 3.98; L 3.07; M 2.92; N 4.14; P 3.48; Q 3.16; R 2.94; S 4.37; T 3.62; V 2.94; W 3.03; Y 2.9
R18: A 2.37; C 2.48; D 3.44; E 3.12; F 3; G 3.6; H 3.17; I 2.44; K 3.67; L 2.43; M 2.98; N 2.42; P 4.25; Q 2.84; S 3.26; T 3.16; V 2.35; W 1.73; Y 2.7
E19: A 3.18; C 2.66; D 2.73; F 2.46; G 3.88; H 2.5; I 2.5; K 2.74; L 2.52; M 2.88; N 2.89; P 2.72; Q 2.68; R 2.61; S 2.74; T 3.16; V 2.88; W 1.82; Y 2.39
N20: A 2.35; C 2.33; D 3.65; E 1.88; F 2.52; G 2.88; H 1.85; I 1.74; K 3.34; L 2.17; M 1.77; P 3.04; Q 2.08; R 2.72; S 2.36; T 1.93; V 2.54; W 2.85; Y 2.07
I21: A 3.04; C 2.43; D 3.36; E 3.27
